Data taken from article PMC12375888 (Febs Letters, 2025).

Legend:
[1] = target: T1, Mycobacterium tuberculosis thiosulfate sulfurtransferase SseA (Mycobacterium tuberculosis, UniProt P9WHF7 1-297, RED-NHS dye on primary amines (lysine residues), degree of labeling ~0.5, in the MST experiment only); assay: cell-based or functional assay
T1 sequence: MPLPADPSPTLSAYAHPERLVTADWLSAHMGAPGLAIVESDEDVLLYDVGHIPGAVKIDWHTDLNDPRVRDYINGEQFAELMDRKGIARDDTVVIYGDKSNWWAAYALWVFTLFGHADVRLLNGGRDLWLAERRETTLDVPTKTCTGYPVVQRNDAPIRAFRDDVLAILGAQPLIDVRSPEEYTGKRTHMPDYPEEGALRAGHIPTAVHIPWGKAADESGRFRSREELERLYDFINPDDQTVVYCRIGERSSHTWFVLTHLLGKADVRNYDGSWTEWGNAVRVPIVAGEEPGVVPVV

[2] = target: T1, Mycobacterium tuberculosis thiosulfate …; assay: MST; 10 nM SseA labelled with RED-NHS dye, label-free SufE Mtb titrated from 1.5 nM to 50 uM; 25 °C, 50 mM sodium phosphate pH 7.8, 0.05% Tween-20; Monolith NT.115; conditions: both partners purified
[3] = target: T1, Mycobacterium tuberculosis thiosulfate …; assay: ITC; 10 uM SseA in the cell titrated with 100 uM SufE; PBS pH 8.0 (phosphate 20 mM, NaCl 150 mM, DTT 2 mM), 25 °C; single binding site model; conditions: both partners purified

B1: Mycobacterium tuberculosis SufE-like protein Rv3284 (SufE Mtb) (natural protein)
chain: MTAPASLPAPLAEVVSDFAEVQGQDKLRLLLEFANELPALPSHLAESAMEPVPECQSPLFLHVDASDPNRVRLHFSAPAEAPTTRGFASILAAGLDEQPAADILAVPEDFYTELGLAALISPLRLRGMSAMLARIKRRLREAD
notes: Tag-free after TEV cleavage; also called SseE; not shown: His6, N-terminal, cleaved; GST, N-terminal, cleaved
**Q.** Which “thiosulfate:cyanide sulfurtransferase activity of 10 uM SseA with increasing SufE Mtb (10-100 uM)” value [1] does the source give for B1 here?
**A.** 4 fold

**Q.** What about the Kd [2] of the same binder?
**A.** 3000 ± 700 nM

**Q.** What about the Kd [3] of the same binder?
**A.** 3.3 ± 0.6 µM

**Q.** And the dH [3]?
**A.** -11.6 kcal/mol

**Q.** What about the “stoichiometry N” value [3] of the same binder?
**A.** 1
